Test results as given in the nanobody polyreactivity screen of Harvey et al. (2022).

Test: yeast display, Sf9 membrane polyspecificity reagent, FACS + sequencing; frameworks hold sequencing errors
How it was run: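 Polyreactivity labels are assigned by the sorting gate from which each nanobody was recovered. The gates were low and high (top ~1%), set on anti-HA fluorescence for expression and streptavidin fluorescence for reagent binding. Before sorting, galactose-induced (36–48 hours) yeast display cells were stained for 1 hour at 4 °C with 10% biotinylated, detergent-solubilized Sf9 membrane reagent.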

| Sequence | polyreactivity (PSR sort gate) |
| --- | --- |
| QVQLVESGGGLVQAGGSLRLSCAASGSIFKRYAMGWYRQAPGKERELVARISRRGGTYYADSVKGRFTISRDNAKNTVYLQMNSLKPEDTAVYYCNANVIFADNNDRDYWGQGTQVTVSS | low polyreactivity |
| QVQLVESGGGLVQAGGSLRLSCAASGSIFKRYTMGWYRQAPGKERELVASIRSRAGNTYYADSVKGRFTISRDNAKNTVYLQMNSLKPEDTAVYYCAVSAWGYYRTSYGYWGQGTQVTVSS | high polyreactivity |
| QVQLVESGGGLVQAGGSLRLSCAASGSIFKSYAMGWYRKAPGKERELVAAITWRSGRTYYADSLKGRFTISRDNAKNTVYLQMNSLKPEDTAVYYCAAELVSVRYLYALHDRDYWGKGTQVTVSS | low polyreactivity |
| QVQLVESGGGLVQAGGSLRLSCAASGSIFKSYAMGWYRQAPGKERELVAAISWSGTSTYYADSVKGRFTISRDNAKNTVYLQMNSLKPEDTAVYDCAASGDYGEYGYWGQGTQVTVSS | low polyreactivity |
| QVQLVESGGGLVQAGGSLRLSCAASGSIFKSYAMGWYRQAPGKERELVAAITWRSGRTYYADSVKGRFTISRDNAKNTVYLQMTSLKPEDTAVYYCAADDTSYYIYSYDYWGQGTQVTVSS | low polyreactivity |
| QVQLVESGGGLVQAGGSLRLSCAASGSIFKTYAMGWYRQAPGKERELVAAISWRGGSTYYADSVKGRFTISRDNAKNTVYLEMNSLKPEDTAVYYCAAGRKFGTRTLWYRYGYWGQGTQVTVSS | high polyreactivity |
| QVQLVESGGGLVQAGGSLRLSCAASGSIFKVNAMGWYRQAPGKEWELVARTYYADSVKGRFTISRDNAKNTVYLQMNSLKPEDTAVYYCAASRGIYNPYDYWGQGTQVTVSS | low polyreactivity |
| QVQLVESGGGLVQAGGSLRLSCAASGSIFKVYAMGWYRQAPGKERELVATISGSGGSTYYADSVKGRFTISRDNAKNTVYLQMNSLKPEDTAVYYCAAEVYVPDYFQHKFDVEYEYWGQGTQVTVSS | low polyreactivity |
| QVQLVESGGGLVQAGGSLRLSCAASGSIFKWNAMGWYRQAPGKEWELVAAITWSGGRTYYADSVKGRFTISRDNAKNTVYLQMNSLKPEDTAVYYCAATQYRSDGWRYDYWGQGTQVTVSS | high polyreactivity |
| QVQLVESGGGLVQAGGSLRLSCAASGSIFKWYTMGWYRQAPGKERELVAAITWGGGSTYYADSVKGRFTISRDNAKNTVYLQMNSLKPEDTAVYYCNAEYVVADYGYYTIEFDYWGQGTQVTVSS | low polyreactivity |
| QVQLVESGGGLVQAGGSLRLSCAASGSIFKYNDMGWYRQAPGKERELVAAIRLGGGSTSYADSVKGRFTISRDNAKNTVYLQMNSLKPEDTAVYYCAAEINVGWLGSYDYWGQGTQVTVSS | low polyreactivity |
| QVQLVESGGGLVQAGGSLRLSCAASGSIFKYYAMGWYRQAPGKERELVAAISRSGTSTYYADSVKGRFTISRDNAKNTVYLQMNSLKPEDTAVYYCNAVGISQFAKYGWRYDYWGQGTQVTVSS | high polyreactivity |
| QVQLVESGGGLVQAGGSLRLSCAASGSIFKYYAMGWYRQAPGKERELVAAISSGGITNYADSVKGRFTISRDNAKNTVYLQMNSLKPEDTAVYYCAARDYVRLGLYDYDYWGQGTQVTVSS | low polyreactivity |
| QVQLVESGGGLVQAGGSLRLSCAASGSIFKYYAMGWYRQAPGKERELVAAISSSGGSTYYADSVKWRFTISRDNAKNTVYLQMNSLKPEDTAVYYCNTPYIWKNYDYWGQGTQVTVSS | high polyreactivity |
| QVQLVESGGGLVQAGGSLRLSCAASGSIFKYYAMGWYRQAPGKERELVAAITSGVSTYADSVKGPFTISRDNAKNTVYLQMNSLKPEDTAVYYCAVRVTGPRGDYWGQGTQVTVSS | low polyreactivity |
| QVQLVESGGGLVQAGGSLRLSCAASGSIFKYYAMGWYRQAPGKERELVAAITWSGTRTYYADSVKGRFTISRDNAKNTVYLQMNSLKPEDTAVYYCNAPRYLYSAGRFNYWGQGTQVTVSS | high polyreactivity |
| QVQLVESGGGLVQAGGSLRLSCAASGSIFKYYTMGWYRQAPGKERELVASINGGGSTNYADSVKGRFTISRDNAKNTVYLQMNSLKPEDTAVYYCNARYWWQDGYWGQGTQVTVSS | high polyreactivity |
